Entries after “also recorded” stand apart in the source; their conditions may differ.
Columns and labels:
CLIC1 = target: T1, CLIC1 (Homo sapiens, UniProt O00299); assay: Whole-cell patch clamp on HEK cells transfected with CLIC1 plasmid; assay type: cell-based; conditions: HEK cells overexpressing CLIC1; voltage steps from −60 to +80 mV; IAA94 50 μM
T1 construct: expressed in transfected cells; host or cells: HEK cells
Description: FIG. 17. Current/voltage relationship of CLIC1 membrane current in whole-cell patch clamp experiments. HEK cells were transfected with CLIC1 plasmid to overexpress the CLIC1 protein. After recording control current (filled cycles; n=5) cells were perfused alternatively with the polyclonal antibody (open triangles; n=7), tmCLIComab (inverse open triangles; n=10) and with 50 μM IAA94 (filled squared; n=11). The whole cells current is expressed as a current density.
The reference sequence of the CLIC1 protein used in the experiments described in the present patent application is filed at UniProt under number UniProtKB—000299 (CLIC1 human), and described in the article Harrop S. J. et al., “Crystal structure of a soluble form of the intracellular chloride ion channel CLIC1 (NCC27) at 1.4-Å Resolution”; The Journal of Biological Chemistry, Vol. 276 No. 48, November 30, pp. 44993-45000 (2001).
The potential was set on the basis of the resting potential of each cell (between 0 and −80 mV). The CLIC1-mediated chlorine currents were isolated from other ion currents by mathematical subtraction of the residual current following perfusion of 100 μM IAA94 dissolved in the external solution.

microglial cells [1] = assay: Growth curves of microglial cells stimulated with β-amyloid; assay type: cell-based, mice; conditions: 1 μM β-amyloid, 4-day observation period
Description: The microglial cells used (BV-2) originated from an immortalised cell line deriving from C57BL/6 mice and commonly marketed. The culture medium used was RPMI (Thermo Fisher Scientific) with the addition of 10% FBS (Euroclone) and 1% Pen/Strep ([…], Thermo Fisher Scientific).
(§1) The cells were seeded in 24-well plates (20,000 cells/well) and counted after 24, 48, 72 and 96 hours to construct the growth curve. The cells were collected and centrifuged, and the resuspended pellet was diluted 1:1 with Trypan Blue. An automated counter (Countess II, Thermo Fisher Scientific) was used to count the cells. All data were normalized to their controls.

microglial cells [2] = assay: ROS production in cultured microglial cells; assay type: cell-based, mice; conditions: after addition of β-amyloid and antibody
Description: A second functional experiment performed on microglial cells involved measuring the production of reactive oxygen species (ROS), which contribute to creating a highly oxidising environment harmful to the neurones. Once again (FIG. 5), a physiological increase in cytoplasmic ROS was recorded (baseline), with ROS production after addition of β-amyloid, and finally, cell oxidation during the simultaneous presence of amyloid peptide and the tmCLIC1omab antibody.

human glioblastoma cells [3] = assay: Growth curves of human glioblastoma cells in primary culture; assay type: cell-based
Text: The primary glioblastoma cell lines, already tested for stem cell properties and carcinogenicity, were kindly supplied by Professor T. Florio's laboratory at Genoa University (Genoa, Italy). The cells were obtained from a surgical biopsy performed in the Neurosurgery Department of IRCCS-AOU San Martino IST (Genoa, Italy), from patients who had not received any treatment before the operation. The samples were histologically classified as GB grade IV (according to the WHO classification), and were used after obtaining the patients' informed consent and the approval of the Institutional Ethics Committee (IEC). The cells were cultured in stem cell-permissive medium consisting of Dulbecco's Modified Eagle's Medium (DMEM) and F12-GlutaMAX at the ratio of 1:1, supplemented with 1×B27 (Thermo Fisher Scientific), […] of fibroblast growth factor (FGF, Miltenyi Biotec), […] of human epidermal growth factor (EGF, Miltenyi Biotec) and 1% penicillin/streptomycin (Pen/Strep, […]) (Thermo Fisher Scientific).
as §1

human glioblastoma cells [4] = assay: ROS production in human glioblastoma cells in primary culture; assay type: cell-based
Description: In the subsequent functional experiment, ROS production was measured over time. The graph in FIG. 11 relates to the acquisition of fluorescence signals proportional to the amount of cytoplasmic ROS in glioblastoma cells. The cells were treated with both the antibody and the tmCLIC1 channel blocker.

human glioblastoma cells [5] = assay: Glioblastoma cells pre-treated with antibody, inoculated into the brain of immunodepressed mice, magnetic resonance scan; assay type: in vivo; conditions: cells incubated 72 hours with antibody before inoculation; scan two months after inoculation
Description: In the in vivo experiments, human glioblastoma cells were incubated for 72 hours with tmCLIC1omab antibody before being inoculated into the brain of immunodepressed mice.
Patient-derived neurospheres were mechanically dissociated, resuspended in […], and injected into the caudate nucleus (1 mm posterior, 3 mm left lateral, 3.5 mm deep relative to bregma) of 5-week-old female CD1 nu/nu mice (Charles River, Wilmington, MA). The cells were incubated with the antibody or the control isotype for 72 hours before implantation (10^5 cells) into the brain of immunodeficient mice. The experiments were conducted pursuant to Italian law (Order of the Executive 116/92, as amended), which transposes EU Directive 86/609 (Council Directive 86/609/EEC of 24 Nov. 1986 on the approximation of laws, regulations and administrative provisions of the Member States regarding the protection of animals used for experimental and other scientific purposes).

COLO201 [6] = assay: COLO201 spheroids, 3D culture; assay type: cell-based; conditions: treated 24 to 96 hours, area normalized on initial area
Description: To evaluate whether tmCLIC1omab is able to penetrate across tumor spheroids, a 3D culture was performed. After the complete formation of spheroids, treatments were added and the area was measured every 24 hours up to 96 hours. The area at each time point was then normalized on the initial spheroids' area.
Spheroids were formed with hanging-drop method and then plated in rounded 96 plates coated with 5% of agar. After the complete formation of spheroids, treatments were added and the area was measured every 24 hours up to 96 hours. The area at each time point was then normalized on the initial spheroids' area.

COLO201 [7] = assay: Trans well migration and invasion assay; assay type: cell-based; conditions: COLO201 WT, 72 h
Description: The overexpression of tmCLIC1 in the most aggressive cell lines of colorectal cancer and its pivotal role in regulation of cell cycle progression and proliferation, opens a question on the function of tmCLIC1 activity on migration and invasion potential of CRCs, that makes colorectal cancer still uncurable. We performed a Trans well assay to understand whether CLIC1 impairment could affect the migration and invasion potential of COLO201. Cells were plated after 60 hours of serum deprivation on a porous membrane, permeable only to growth factor, in contact to complete medium. The resulting chemo-attractant gradient leads the migrative cells to cross the membranes that are then stained with DAPI to visualize the nuclei. […] For invasion assays, we coated with Matrigel the porous membrane to mimic the extracellular matrix that cells must disrupt to invade tissues and mucosa.
Cells were plated after 60 hours of serum deprivation on a […] porous membrane, permeable only to growth factor, in contact to complete medium. Membranes were cut, stained with DAPI dye, and included with mowiol. Cover glasses were examined under Zeiss Examiner A1 fluorescence microscope with a Zeiss 40×/0.75 NA water immersion lens.

B1: tmCLIC1omab: IgG1 class antibody containing the heavy chain variable region SEQ ID NO:13 and the light chain variable region SEQ ID NO:14 (antibody, listed as Mus musculus, V domains shown)
VH: EVMLVESGGGLVKPGGSLKLSCAASGFAFSNYAMSWIRQIPEKRLEWVATISTGGSSTFYPDSVKGRFTISRDNAKNTLYLQMSSLRSEDTAMYYCTRHAYEAWFAYWGQGTLVTVSA
VL: QIVLTQSPALMSASPGEKVTMTCSASSSVSYMYWYQQRPRSSPKPWIYLTSTLASGVPTRFSGSGSGTSYSLTISSMEAEDAATYYCQQWNSHPLTFGSGTKLEIK
CLIC1
  inhibition of CLIC1 ionic whole-cell current: matched only by tmCLIC1omab
Microglial cells [1]
  cell proliferation in the presence of β-amyloid: completely inhibited
Microglial cells [2]
  ROS production: falls to the control level
Human glioblastoma cells [3]; glioblastoma cells, FIG. 9
  growth rate compared with Clic1−/− knockout cells: the same growth rate
Human glioblastoma cells [3]; primary culture, 4-day period
  cell growth (growth curve): inhibited cell growth
Human glioblastoma cells [4]; FIG. 11 legend, versus control
  fall in ROS production: about fourfold
Human glioblastoma cells [4]; fluorescence signals proportional to cytoplasmic ROS
  reduction of the slope of the ROS increase curve: about fivefold
Human glioblastoma cells [5]
  tumour mass on magnetic resonance scan: much smaller mass
COLO201 [6]
  spheroids' area / proliferation of spheroids versus control: significantly smaller compared to the control from 48 h; also recorded: impair proliferation of spheroids significantly after 48 hours
COLO201 [7]
  migration (number of migrative nuclei) versus control: significant lower number of migrative nuclei
COLO201 [7]; Matrigel-coated membrane
  invasion (number of invasive nuclei) versus control: the same behavior seen for migration assay
